{"source": "patent US20240247069A1", "about": "“FGFR3 BINDING MOLECULES AND METHODS OF USE THEREOF” (Regeneron Pharmaceuticals, Inc., priority 2023, published 2024)", "origin": "cited, not measured here", "molecules": {"B1": {"name": "Hu15D8: anti-FGFR3 domain 3 antibody of WO 2010/002862 A2; VH SEQ ID NO:59, VL SEQ ID NO:60 (antibody, V domains shown)", "VH": "EVQLVQSGAEVKKPGESLKISCKGSGYSFTSYNMYWVRQMPGKGLEWMGYIDPYNGGTSYNQKFKGKATLTVDKSISTAYLQWSSLKASDTAMYYCAREGGNYEAWFAYWGQGTLVTVSS", "VL": "DIQLTQSPSSLSASVGDRVTITCSASSSVSYMYWFQQKPGKAPKPLIYLTSYLASGVPSRFSGSGSGTDFTLTISSLQPEDFATYYCQQWSSYPLTFGGGTKVEIK"}, "B2": {"name": "PRQ-029: anti-FGFR3 IIIc antibody of WO 2006/048877 A2; VH SEQ ID NO:40, VL SEQ ID NO:49 (antibody, V domains shown)", "VH": "QVQLVQSGAEVKKPGASVKVSCKASGYTFTSYYMHWVRQAPGQGLEWMGWINPNSGGTNYAQKFQGRVTMTRDTSISTAYMELSSLRSEDTAVYYCARTWQYSYFYYLDGGYYFDIWGQGTLVTVSS", "VL": "DIVLTQSPATLSLSPGERATLSCRASQSVSSSYLAWYQQKPGQAPRLLIYGASSRATGVPARFSGSGSGTDFTLTISSLEPEDFATYYCQQTNNAPVTFGQGTKVEIKRT"}, "B3": {"name": "MS-Pro-55: anti-FGFR3 Ig-like domain 3 antibody of WO 2002/102972 A2; VH SEQ ID NO:44, VL SEQ ID NO:45 (antibody, V domains shown)", "VH": "QVQLVQSGAEVKKPGASVKVSCKASGYTFTSYYMHWVRQAPGQGLEWMGWINPNSGGTNYAQKFQGRVTMTRDTSISTAYMELSSLRSEDTAVYYCARSMNSTMYWYLRRVLFDHWGQGTLVTVSS", "VL": "DIALTQPASVSGSPGQSITISCTGTSSDVGGYNYVSWYQQHPGKAPKLMIYDVSNRPSGVSNRFSGSKSGNTASLTISGLQAEDEADYYCQSYDMYNYIVFGGGTKLTVLGQ"}, "B4": {"name": "PRQ-055: anti-FGFR3 IIIc antibody of WO 2006/048877 A2; VH SEQ ID NO:44, VL SEQ ID NO:45 (antibody, V domains shown)", "VH": "B3 VH", "VL": "B3 VL"}, "B5": {"name": "MS-Pro-54: anti-FGFR3 Ig-like domain 3 antibody of WO 2002/102972 A2; VH SEQ ID NO:42, VL SEQ ID NO:43 (antibody, V domains shown)", "VH": "QVQLVQSGAEVKKPGASVKVSCKASGYTFTSYYMHWVRQAPGQGLEWMGWINPNSGGTNYAQKFQGRVTMTRDTSISTAYMELSSLRSEDTAVYYCARNMAYTNYQYVNMPHFDYWGQGTLVTVSS", "VL": "DIELTQPPSVSVAPGQTARISCSGDALGDKYASWYQQKPGQAPVLVIYDDSDRPSGIPERFSGSNSGNTATLTISGTQAEDEADYCQSYDYFKLVFGGGTKLTVLGQ"}, "B6": {"name": "PRQ-054: anti-FGFR3 IIIc antibody of WO 2006/048877 A2; VH SEQ ID NO:42, VL SEQ ID NO:50 (antibody, V domains shown)", "VH": "B5 VH", "VL": "DIELTQPPSVSVAPGQTARISCSGDALGDKYASWYQQKPGQAPVLVIYDDSDRPSGIPERFSGSNSGNTATLTISGTQAEDEADYYCQSYDYFKLVFGGGTKLTVLGQ"}, "B7": {"name": "20B4: anti-FGFR3 domain 3 antibody of WO 2010/002862 A2; VH SEQ ID NO:57, VL SEQ ID NO:58 (antibody, V domains shown)", "VH": "EIQLQQSGPELVKPGASVKVSCKASGYSLTDYNMYWVKQSHGKSLEWIGYIDPYNGGTSYNQKFKGKATLTVDKSSSTAFMHLNSLTSEDSAVYYCARSLGPDFDYWGQGTTLTVSS", "VL": "QIVLTQSPAIMSASPGEKVTMTCSASSSVNYMHWYQQKSGTSPKRWIYDTSKLASGVPARFSGSGSGTSYSLTISSMEAEDTATYYCQQWNSNPLTFGAGTKLELK"}, "B8": {"name": "15D8: anti-FGFR3 domain 3 antibody of WO 2010/002862 A2; VH SEQ ID NO:51, VL SEQ ID NO:52 (antibody, V domains shown)", "VH": "EIQLQQSGPELVKPGASVKVSCKASGYAFTSYNMYWVKQSHGKSLEWIGYIDPYNGGTSYNQKFKGKATLTVDKSSSTAYMHLNSLTSEDSAVYYCAREGGNYEAWFAYWGQGTLVTVSA", "VL": "QIVLTQSPALMSASPGEKVTMTCSASSSVSYMYWYQQKPRSSPKPWIYLTSYLASGVPARFSGSGSGTSYSLTISSMEAEDAATYYCQQWSSYPLTFGAGTKLELK"}, "B9": {"name": "4E7(7D12): anti-FGFR3 domain 3 antibody of WO 2010/002862 A2; VH SEQ ID NO:56, VL SEQ ID NO:54 (antibody, V domains shown)", "VH": "B8 VH with S59R", "VL": "B8 VL with Y52N, Y93N"}, "B10": {"name": "2G4: anti-FGFR3 domain 3 antibody of WO 2010/002862 A2; VH SEQ ID NO:55, VL SEQ ID NO:54 (antibody, V domains shown)", "VH": "B8 VH with S59R, Y60D", "VL": "B8 VL with Y52N, Y93N"}, "B11": {"name": "27H2: anti-FGFR3 domain 3 antibody of WO 2010/002862 A2; VH SEQ ID NO:53, VL SEQ ID NO:54 (antibody, V domains shown)", "VH": "B8 VH with S59R, L70M", "VL": "B8 VL with Y52N, Y93N"}, "B12": {"name": "PRQ-026: anti-FGFR3 IIIc antibody of WO 2006/048877 A2; VH SEQ ID NO:36, VL SEQ ID NO:37 (antibody, V domains shown)", "VH": "QVQLVQSGAEVKKPGASVKVSCKASGYTFTSYYMHWVRQAPGQGLEWMGWINPNSGGTNYAQKFQGRVTMTRDTSISTAYMELSSLRSEDTAVYYCARGYWYAYFTYINYGYFDNWGQGTLVTVSS", "VL": "DIALTQPASVSGSPGQSITISCTGTSSDVGGYNYVSWYQQHPGKAPKLMIYDVSNRPSGVSNRFSGSKSGNTASLTISGLQAEDEADYYCQSYDNNSDWFGGGTKLTVLGQ"}, "B13": {"name": "PRQ-001: anti-FGFR3 domain 2 antibody of WO 2006/048877 A2; VH SEQ ID NO:46, VL SEQ ID NO:29 (antibody, V domains shown)", "VH": "QVQLQQSGPGLVKPSQTLSLTCAISGDSVSSNSAAWNWIRQSPGRGLEWLGRTYYRSKWYNDYAVSVKSRITINPDTSKNQFSLQLNSVTPEDTAVYYCARSYYPDFDYWGQGTLVTVSS", "VL": "DIELTQPPSVSVAPGQTARISCSGDALGDKYASWYQQKPGQAPVLVIYDDSDRPSGIPERFSGSNSGNTATLTISGTQAEDEADYYCQSYDGPDLWVFGGGTKLTVLGQ"}, "B14": {"name": "PRQ-002: anti-FGFR3 domain 2 antibody of WO 2006/048877 A2; VH SEQ ID NO:24, VL SEQ ID NO:25 (antibody, V domains shown)", "VH": "QVQLVQSGAEVKKPGASVKVSCKASGYTFTSYYMHWVRQAPGQGLEWMGWINPNSGGTNYAQKFQGRVTMTRDTSISTAYMELSSLRSEDTAVYYCARDFLGYEFDYWGQGTLVTVSS", "VL": "B13 VL with G92Y, P93S, D94A, L95D, W96Y"}, "B15": {"name": "VH: SEQ ID NO: 7 of PCT Publication No: WO 2010/048026 A2: unnamed anti-FGFR3 Ig-like domain 2 antibody of WO 2010/048026 A2; VH SEQ ID NO:61, VL SEQ ID NO:62 (antibody, V domains shown)", "VH": "EVQLVQSGAEVKKPGASVKVSCKASGYMFTSYGISWVRQAPGQGLEWMGWVSTYNGDTNYAQKFQGRVTVTTDTSTSTAYMELRSLRSEDTAVYYCARVLGYYDSIDGYYYGMDVWGQGTTVTVSS", "VL": "QSVLTQPPSLSVAPGKTATFTCGGNNIGDKSVHWYRQKPGQAPVLVMYLDTERPSGIPERMSGSNFGNTATLTITRVEAEDEADYYCQVWDSGSDHVVFGGGTKLTVLG"}, "B16": {"name": "PRQ-012: anti-FGFR3 domain 2 antibody of WO 2006/048877 A2; VH SEQ ID NO:47, VL SEQ ID NO:27 (antibody, V domains shown)", "VH": "QVQLKESGPALVKPTQTLTLTCTFSGFSLSTSGVGVGWIRQPPGKALEWLALIDWDDDKYYSTSLKTRLTISKDTSKNQVVLTMTNMDPVDTATYYCARYHSWYEMGYYGSTVGYMFDYWGQGTLVTVSS", "VL": "B6 VL with Y92F, F93D, K94F, L95A"}, "B17": {"name": "MS-PRQ-12: anti-FGFR3 Ig-like domain 2 antibody of WO 2002/102972 A2; VH SEQ ID NO:26, VL SEQ ID NO:27 (antibody, V domains shown)", "VH": "QVQLKESGPALVKPQTLTLTCTFSGFSLSTSGVGVGWIRQPPGKALEWLALIDWDDDKYYSTSLKTRLTISKDTSKNQVVLTMTNMDPVDTATYYCARYHSWYEMGYYGSTVGYMFDYWGQGTLVTVSS", "VL": "B6 VL with Y92F, F93D, K94F, L95A"}}, "note": "Residue numbers refer to the chain shown, from its start.", "data": [{"test_system": "FGFR3", "details": "Table T-3, exemplary FGFR3 D3 binding sequences from cited PCT publications", "values": [{"molecule": "B1", "Activity": "Antagonistic"}, {"molecule": "B2", "Activity": "Antagonistic"}, {"molecule": "B3", "Activity": "Antagonistic"}, {"molecule": "B4", "Activity": "Antagonistic"}, {"molecule": "B5", "Activity": "Antagonistic"}, {"molecule": "B6", "Activity": "Antagonistic"}, {"molecule": "B7", "Activity": "Antagonistic"}, {"molecule": "B8", "Activity": "Antagonistic"}, {"molecule": "B9", "Activity": "Antagonistic"}, {"molecule": "B10", "Activity": "Antagonistic"}, {"molecule": "B11", "Activity": "Antagonistic"}, {"molecule": "B12", "Activity": "Antagonistic"}]}, {"test_system": "FGFR3", "details": "literature antibodies, sequences from cited PCT publications", "values": [{"molecule": "B1", "Activity": "Antagonistic"}, {"molecule": "B13", "Activity": "Antagonistic"}, {"molecule": "B14", "Activity": "Antagonistic"}, {"molecule": "B2", "Activity": "Antagonistic"}, {"molecule": "B15", "Activity": "Antagonistic"}, {"molecule": "B3", "Activity": "Antagonistic"}, {"molecule": "B4", "Activity": "Antagonistic"}, {"molecule": "B5", "Activity": "Antagonistic"}, {"molecule": "B6", "Activity": "Antagonistic"}, {"molecule": "B7", "Activity": "Antagonistic"}, {"molecule": "B8", "Activity": "Antagonistic"}, {"molecule": "B9", "Activity": "Antagonistic"}, {"molecule": "B10", "Activity": "Antagonistic"}, {"molecule": "B11", "Activity": "Antagonistic"}, {"molecule": "B16", "Activity": "Antagonistic"}, {"molecule": "B17", "Activity": "Antagonistic"}, {"molecule": "B12", "Activity": "Antagonistic"}]}]}
